Reference: patent US20170137818, “APTAMER INHIBITING BIOLOGICAL ACTIVITY OF AUTOTAXIN BY BINDING WITH AUTOTAXIN, AND USE THEREOF” (RIBOMIC INC., published 2017)

B1: 12(25) (ssDNA)
DNA: CCTGGACGGAACCAGAATACTTTTGGTCTCCAGG
modifications: 2'-OMe C1,C2,T3,G4,G5,C7,G9,C12,C13,A14,G15,T18,A19,C20,A32,G33,G34; 5' idT, 3' idT
B2: SEQ 23 aptamer (ssDNA)
DNA: ACACTCACAGGCGCTGGCACGGACCGGAACCGGGACGCTCGGTCGACCGTGCATGGCCGCTAGT
B3: SEQ 10 aptamer (ssDNA)
DNA: GTGGTCTAGCTGTACTCGCCGGAACCGTACTATGGTCGCGTTGTATGACGCTTGTATCCACAGTCAACGAGCTA
B4: SEQ 20 aptamer (ssDNA)
DNA: ACACTCACAGGCGCTGGGGTACGCTCGGAACCGAGGCAATTGGTCAGCGTGCATGGCCGCTAGT
B5: SEQ 6 aptamer (ssDNA)
DNA: GTGGTCTAGCTGTACTCGGAACCGTACTCAACGGTCAGTACCTTTGCGCCGCAGCAAGCCACAGTCAACGAGCTA
B6: SEQ 21 aptamer (ssDNA)
DNA: ACACTCACAGGCGCTGGCCACCACTGCACCGGAACCGCGAATGTGGTCGTGCATGGCCGCTAGT
B7: SEQ 5 aptamer (ssDNA)
DNA: GTGGTCTAGCTGTACTCATGGACGGAACCAGAATACTTTTGGTCTCCATTGAGTACGCCACAGTCAACGAGCTA
B8: SEQ 22 aptamer (ssDNA)
DNA: ACACTCACAGGCGCTGGCCGGAACCGTGCATATGGTCGCCAGCACATCGTGCATGGCCGCTAGT
B9: SEQ 9 aptamer (ssDNA)
DNA: GTGGTCTAGCTGTACTCAGGCCGGAACCGGTGAAATTGGTCGCCTAATAAGCGAAATCCACAGTCAACGAGCTA
B10: SEQ 4 aptamer (ssDNA)
DNA: GTGGTCTAGCTGTACTCTCCGGAACCAGAGCAATTTGGTCGAGCGCTATCGGATGGTCCACAGTCAACGAGCTA
B11: SEQ 24 aptamer (ssDNA)
DNA: ACACTCACAGGCGCTGGCGAGTCGGAACCGAGCCGATTGGTCACTCGCGTGCATGGCCGCTAGT
B12: SEQ 25 aptamer (ssDNA)
DNA: ACACTCACAGGCGCTGGCGACGTCGGAACCGTGTACCATGGTCACGTCGTGCATGGCCGCTAGT

Molecular target: autotaxin (endogenous, human pooled serum) (Homo sapiens, UniProt Q13822 Q13822:36-863)
Assay: inhibition; LPA production in serum, 5.0 uM

Point of comparison: CCTGGACGGAACCAGAATACTTTTGGTCTCCAGG (ssDNA, 2'-OMe G5) [12(36)], activity 84 % inhibition. Against it:
- CCTGGACGGAACCAGAATACTTTTGGTCTCCAGG (ssDNA, 2'-OMe A16) [12(27)] — higher, 86 % inhibition
- CCTGGACGGAACCAGAATACTTTTGGTCTCCAGG (ssDNA, 2'-OMe G25,G26) [12(6)] — lower, 63 % inhibition
- CCTGGACGGAACCAGAATACTTTTGGTCTCCAGG (ssDNA, 2'-OMe T29) [12(9)] — lower, 78 % inhibition
- CCTGGACGGAACCAGAATACTTTTGGTCTCCAGG (ssDNA, 2'-OMe C30) [12(37)] — higher, 85 % inhibition
- CCTGGACGGAACCAGAATACTTTTGGTCTCCAGG (ssDNA, 2'-OMe C13) [12(32)] — higher, 85 % inhibition
- CCTGGACGGAACCAGAATACTTTTGGTCTCCAGG (ssDNA, 2'-OMe C1) [12(41)] — higher, 85 % inhibition
- CCTGGACGGAACCAGAATACTTTTGGTCTCCAGG (ssDNA, 2'-OMe T23) [12(34)] — lower, 55 % inhibition
- CCTGGACGGAACCAGAATACTTTTGGTCTCCAGG (ssDNA, 2'-OMe T22) [12(28)] — lower, 64 % inhibition
- CCTGGACGGAACCAGAATACTTTTGGTCTCCAGG (ssDNA, 2'-OMe C7) [12(12)] — higher, 94 % inhibition
- CCTGGACGGAACCAGAATACTTTTGGTCTCCAGG (ssDNA, 2'-OMe G4,G5) [12(21)] — the same, 84 % inhibition
- CCTGGACGGAACCAGAATACTTTTGGTCTCCAGG (ssDNA, 2'-OMe C2) [12(40)] — the same, 84 % inhibition
- CCTGGACGGAACCAGAATACTTTTGGTCTCCAGG (ssDNA, 2'-OMe C12) [12(31)] — higher, 87 % inhibition
- CCTGGACGGAACCAGAATACTTTTGGTCTCCAGG (ssDNA, 5' 40 kDa PEG (GL2-400GS2) via ssH linker, 3' idT) [12(23)] — higher, 90 % inhibition
- CCTGGACGGAACCAGAATACTTTTGGTCTCCAGG (ssDNA, 2'-OMe A11) [12(10)] — lower, 26 % inhibition
- CCTGGACGGAACCAGAATACTTTTGGTCTCCAGG (ssDNA, 2'-OMe T27) [12(11)] — lower, 38 % inhibition
- CCTGGACGGAACCAGAATACTTTTGGTCTCCAGG (ssDNA, 2'-OMe G26) [12(29)] — the same, 84 % inhibition
- CCTGGACGGAACCAGAATACTTTTGGTCTCCAGG (ssDNA, 2'-OMe C20) [12(19)] — higher, 90 % inhibition
- CCTGGACGGAACCAGAATACTTTTGGTCTCCAGG (ssDNA, 2'-OMe T23,T24) [12(5)] — lower, 15 % inhibition
- CCTGGACGGAACCAGAATACTTTTGGTCTCCAGG (ssDNA, 2'-OMe C12,C13) [12(4)] — lower, 82 % inhibition
- CCTGGACGGAACCAGAATACTTTTGGTCTCCAGG (ssDNA, 2'-OMe A6) [12(8)] — lower, 69 % inhibition
- CCTGGACGGAACCAGAATACTTTTGGTCTCCAGG (ssDNA, 2'-OMe G9) [12(14)] — higher, 95 % inhibition
- CCTGGACGGAACCAGAATACTTTTGGTCTCCAGG (ssDNA, 2'-OMe C28) [12(26)] — lower, 35 % inhibition
- CCTGGACGGAACCAGAATACTTTTGGTCTCCAGG (ssDNA, 2'-OMe T3) [12(39)] — higher, 85 % inhibition
- CCTGGACGGAACCAGAATACTTTTGGTCTCCAGG (ssDNA, 2'-OMe T21) [12(20)] — lower, 76 % inhibition
- CCTGGACGGAACCAGAATACTTTTGGTCTCCAGG (ssDNA, 2'-OMe A17) [12(16)] — lower, 83 % inhibition
- CCTGGACGGAACCAGAATACTTTTGGTCTCCAGG (ssDNA, 2'-OMe A14,G15) [12(7)] — higher, 88 % inhibition
- CCTGGACGGAACCAGAATACTTTTGGTCTCCAGG (ssDNA, 2'-OMe A10) [12(15)] — lower, 68 % inhibition
- CCTGGACGGAACCAGAATACTTTTGGTCTCCAGG (ssDNA, 2'-OMe C7,G9,A14,G15,A19,C20,A32,G33,G34; 5' idT, 3' idT) [12(24)] — higher, 96 % inhibition
- CCTGGACGGAACCAGAATACTTTTGGTCTCCAGG (ssDNA, 2'-OMe T18) [12(17)] — lower, 83 % inhibition
- CCTGGACGGAACCAGAATACTTTTGGTCTCCAGG (ssDNA, 2'-OMe G4) [12(35)] — lower, 82 % inhibition
- CCTGGACGGAACCAGAATACTTTTGGTCTCCAGG (ssDNA, 2'-OMe A19) [12(18)] — higher, 93 % inhibition
- CCTGGACGGAACCAGAATACTTTTGGTCTCCAGG (ssDNA, 5' idT, 3' idT) [12(22)] — higher, 91 % inhibition
- B1 — the same, 84 % inhibition
- CCTGGACGGAACCAGAATACTTTTGGTCTCCAGG (ssDNA, 2'-OMe T24) [12(33)] — lower, 62 % inhibition
- CCTGGACGGAACCAGAATACTTTTGGTCTCCAGG (ssDNA, 2'-OMe G8) [12(13)] — lower, 74 % inhibition
- CCTGGACGGAACCAGAATACTTTTGGTCTCCAGG (ssDNA, 2'-OMe G25) [12(30)] — lower, 75 % inhibition
- CCTGGACGGAACCAGAATACTTTTGGTCTCCAGG (ssDNA, 2'-OMe C31) [12(38)] — lower, 83 % inhibition

Molecular target: autotaxin (ENPP2/NPP2) (Homo sapiens, UniProt Q13822 Q13822:36-863)
Assay: inhibition; NPP2 assay, 37 C

Point of comparison: GCTGGCCGGAACCGTGCATATGGTCGCCAGC (ssDNA) [SEQ 29 aptamer], IC50 11 nM. Against it:
- B2 — 6.8-fold higher, 75 nM
- B3 — 1.9-fold higher, 21 nM
- CCTGGACGGAACCAGAATACTTTTGGTCTCCAGG (ssDNA) [SEQ 12 aptamer] — within 1.5-fold, 12 nM
- TACGCTCGGAACCGAGGCAATTGGTCAGCGTG (ssDNA) [SEQ 27 aptamer] — 2.2-fold higher, 24 nM
- B4 — 3.4-fold higher, 37 nM
- B5 — 1.8-fold higher, 20 nM
- TGGACGGAACCAGAATACTTTTGGTCTCCA (ssDNA) [SEQ 13 aptamer] — 10-fold higher, 110 nM
- B6 — 2.5-fold higher, 28 nM
- B7 — the same, 11 nM
- CGCTGGGGTACGCTCGGAACCGAGGCAATTGGTCAGCG (ssDNA) [SEQ 26 aptamer] — 40-fold higher, 440 nM
- B8 — 2.7-fold higher, 30 nM
- CTGGACGGAACCAGAATACTTTTGGTCTCCAG (ssDNA) [SEQ 16 aptamer] — 1.6-fold higher, 18 nM
- B9 — 3.3-fold higher, 36 nM
- B10 — within 1.5-fold, 16 nM
- GGGACGGAACCAGAATACTTTTGGTCTCCC (ssDNA) [SEQ 14 aptamer] — 3.8-fold higher, 42 nM
- B11 — 2.9-fold higher, 32 nM
- B12 — 2.8-fold higher, 31 nM
- GTACTCATGGACGGAACCAGAATACTTTTGGTCTCCATTGAGTAC (ssDNA) [SEQ 11 aptamer] — within 1.5-fold, 12 nM
